In ChEMBL document CHEMBL1136204, “Thymidine and thymidine-5'-O-monophosphate analogues as inhibitors of Mycobacterium tuberculosis thymidylate kinase” (Bioorg Med Chem Lett, 2003):

Key:
[1] = substrate: Cc1cn([C@H]2C[C@H](O)[C@@H](COP(=O)(O)O)O2)c(=O)[nH]c1=O; experiment: Affinity towards thymidine monophosphate kinase (TMPKmt) in Mycobacterium tuberculosis using HPLC chromatography test
[2] = substrate: Cc1cn([C@H]2C=C[C@@H](COP(=O)(O)O)O2)c(=O)[nH]c1=O; experiment: Affinity towards thymidine monophosphate kinase (TMPKmt) in Mycobacterium tuberculosis

B1: Thymidylate kinase (Mycobacterium tuberculosis), P9WKE1 (protein)
chain: MLIAIEGVDGAGKRTLVEKLSGAFRAAGRSVATLAFPRYGQSVAADIAAEALHGEHGDLASSVYAMATLFALDRAGAVHTIQGLCRGYDVVILDRYVASNAAYSAARLHENAAGKAAAWVQRIEFARLGLPKPDWQVLLAVSAELAGERSRGRAQRDPGRARDNYERDAELQQRTGAVYAELAAQGWGGRWLVVGADVDPGRLAATLAPPDVPS
- Km [1]: 40 µM
- Km [2]: 140 µM
